Assay [1] concerns the target biotinylated recombinant human FcγRI protein (Sino Biological) (human) (UniProt P12314). Description: AlphaScreen competition; biotinylated FcγRI, competitor human IgG acceptor beads, 4PL fit.
In assay [2] the target is biotinylated recombinant human FcγRIIIa (Val 176 variant) protein (Sino Biological) (human) (UniProt P08637). Description: AlphaScreen competition; biotinylated FcγRIIIa (Val 176 variant), competitor human IgG acceptor beads, 4PL fit. On the technique in general: Alpha assays give light when donor and acceptor beads are brought close together.
In assay [3] the target is recombinant human C1q protein (Fitzgerald) (human) (UniProt P02745). Description: ELISA; serially diluted test article immobilized, recombinant human C1q added, anti-C1q-HRP, 4PL fit.
Assay [4] deals with recombinant human FcRn (human) (UniProt P55899). Description: ELISA; recombinant human FcRn coated, serially diluted test article, anti-human (H+L)-HRP, 4PL fit.
Assay [5] has as its target biotinylated recombinant human FcγRIIIa (Val 176 variant) protein (Sino Biological) (human) (UniProt P08637). Description: AlphaScreen competition; biotinylated FcγRIIIa (Val 176 variant), competitor human IgG acceptor beads, 4PL fit. The source holds these as a separate data set.
For assay [6], the target named is biotinylated recombinant human FcγRI protein (Sino Biological) (human) (UniProt P12314). Description: AlphaScreen competition; biotinylated FcγRI, competitor human IgG acceptor beads, 4PL fit. This is another data set of the same source.
The target of assay [7] is recombinant human C1q protein (Fitzgerald) (human) (UniProt P02745). Description: ELISA; serially diluted test article immobilized, recombinant human C1q added, anti-C1q-HRP, 4PL fit. The source holds these as a separate data set.
Assay [8] concerns the target mouse FLT3 on the M1 cell line (mouse) (UniProt Q00342). Description: cell-based or functional assay.
Assay [9] addresses human FLT3 on the AML5 cell line (human) (UniProt P36888). Description: cell-based or functional assay.

Read-outs that look alike come from different tables or passages of the source.

biotinylated recombinant human FcγRI protein (Sino Biological) (human), sequence (P12314 16-288 limits assumed): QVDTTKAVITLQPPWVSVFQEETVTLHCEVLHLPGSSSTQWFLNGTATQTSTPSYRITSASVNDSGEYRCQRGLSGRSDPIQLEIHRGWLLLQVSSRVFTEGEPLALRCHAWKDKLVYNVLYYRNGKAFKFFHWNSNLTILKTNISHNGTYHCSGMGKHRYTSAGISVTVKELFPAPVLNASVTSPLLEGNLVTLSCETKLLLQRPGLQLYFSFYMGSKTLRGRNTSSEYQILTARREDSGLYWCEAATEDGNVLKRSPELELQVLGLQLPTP
biotinylated recombinant human FcγRIIIa (Val 176 variant) protein (Sino Biological) (human), sequence (P08637 other isoform, or with tags, fused parts or gaps mutant limits assumed): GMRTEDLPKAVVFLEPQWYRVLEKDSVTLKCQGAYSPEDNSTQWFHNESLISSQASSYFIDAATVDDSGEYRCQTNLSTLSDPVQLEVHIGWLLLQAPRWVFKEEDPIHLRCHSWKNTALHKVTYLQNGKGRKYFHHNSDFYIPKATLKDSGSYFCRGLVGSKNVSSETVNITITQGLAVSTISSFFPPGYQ
mouse FLT3 on the M1 cell line (mouse), sequence (Q00342 28-1000): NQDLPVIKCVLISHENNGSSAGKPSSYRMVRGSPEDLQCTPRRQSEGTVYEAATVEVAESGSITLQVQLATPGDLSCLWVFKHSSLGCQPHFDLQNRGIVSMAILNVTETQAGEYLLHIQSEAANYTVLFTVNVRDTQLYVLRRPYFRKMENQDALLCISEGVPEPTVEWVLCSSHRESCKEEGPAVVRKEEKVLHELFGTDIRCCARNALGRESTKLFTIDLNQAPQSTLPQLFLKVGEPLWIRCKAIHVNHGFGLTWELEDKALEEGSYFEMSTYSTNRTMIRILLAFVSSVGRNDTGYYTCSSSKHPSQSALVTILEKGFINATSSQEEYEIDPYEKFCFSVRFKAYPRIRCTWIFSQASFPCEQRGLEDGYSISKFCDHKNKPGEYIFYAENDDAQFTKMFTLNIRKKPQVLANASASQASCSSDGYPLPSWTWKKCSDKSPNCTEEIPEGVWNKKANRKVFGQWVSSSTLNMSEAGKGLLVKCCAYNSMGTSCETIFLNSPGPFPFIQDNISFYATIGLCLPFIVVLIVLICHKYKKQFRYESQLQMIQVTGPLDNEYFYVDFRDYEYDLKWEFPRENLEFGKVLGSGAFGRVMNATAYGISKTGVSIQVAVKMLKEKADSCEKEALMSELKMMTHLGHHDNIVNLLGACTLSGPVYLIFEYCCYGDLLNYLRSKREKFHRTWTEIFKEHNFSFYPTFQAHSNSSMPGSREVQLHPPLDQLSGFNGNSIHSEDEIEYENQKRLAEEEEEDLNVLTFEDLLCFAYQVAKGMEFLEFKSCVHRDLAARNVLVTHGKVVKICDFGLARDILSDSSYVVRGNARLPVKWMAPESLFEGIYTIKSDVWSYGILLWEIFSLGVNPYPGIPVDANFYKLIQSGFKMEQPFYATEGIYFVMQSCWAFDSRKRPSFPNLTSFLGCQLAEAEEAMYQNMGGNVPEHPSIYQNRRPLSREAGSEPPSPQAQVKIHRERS
recombinant human C1q protein (Fitzgerald) (human), sequence (P02745 23-245 limits assumed, chain 1 of 3): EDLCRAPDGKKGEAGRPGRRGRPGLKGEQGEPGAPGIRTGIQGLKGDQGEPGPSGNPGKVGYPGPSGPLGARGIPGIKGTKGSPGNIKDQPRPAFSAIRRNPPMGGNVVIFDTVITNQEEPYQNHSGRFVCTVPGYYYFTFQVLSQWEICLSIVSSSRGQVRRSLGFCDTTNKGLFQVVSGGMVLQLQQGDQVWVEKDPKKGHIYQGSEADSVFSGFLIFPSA
recombinant human C1q protein (Fitzgerald) (human), sequence (P02746 28-253 limits assumed, chain 2 of 3, further chain): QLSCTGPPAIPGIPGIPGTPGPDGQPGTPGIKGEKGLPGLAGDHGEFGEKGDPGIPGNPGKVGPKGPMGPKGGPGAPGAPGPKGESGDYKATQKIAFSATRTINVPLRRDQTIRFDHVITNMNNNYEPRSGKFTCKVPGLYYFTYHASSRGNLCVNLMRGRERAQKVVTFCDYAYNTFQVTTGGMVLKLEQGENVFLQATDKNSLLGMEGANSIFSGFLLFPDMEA
recombinant human C1q protein (Fitzgerald) (human), sequence (P02747 29-245 limits assumed, chain 3 of 3, further chain): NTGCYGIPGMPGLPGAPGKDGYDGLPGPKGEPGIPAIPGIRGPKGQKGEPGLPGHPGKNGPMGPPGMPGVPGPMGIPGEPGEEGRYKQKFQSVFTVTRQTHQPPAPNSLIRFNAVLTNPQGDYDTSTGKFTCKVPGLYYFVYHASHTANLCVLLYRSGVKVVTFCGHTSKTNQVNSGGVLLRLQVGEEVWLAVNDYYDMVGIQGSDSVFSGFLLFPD
recombinant human FcRn (human), sequence (P55899 24-297 limits assumed, chain 1 of 2): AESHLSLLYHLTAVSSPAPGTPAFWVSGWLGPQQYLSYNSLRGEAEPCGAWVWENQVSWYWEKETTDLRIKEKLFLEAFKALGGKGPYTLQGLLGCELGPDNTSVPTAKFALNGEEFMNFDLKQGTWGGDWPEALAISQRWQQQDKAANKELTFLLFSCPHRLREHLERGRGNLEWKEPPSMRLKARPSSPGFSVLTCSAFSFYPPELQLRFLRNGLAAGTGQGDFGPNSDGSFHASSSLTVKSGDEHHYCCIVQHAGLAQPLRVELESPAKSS
recombinant human FcRn (human), sequence (chain, as listed by the source limits assumed, chain 2 of 2): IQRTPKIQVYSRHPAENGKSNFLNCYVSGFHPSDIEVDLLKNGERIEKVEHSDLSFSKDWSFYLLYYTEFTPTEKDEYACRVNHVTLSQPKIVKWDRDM
human FLT3 on the AML5 cell line (human), sequence (P36888 27-993): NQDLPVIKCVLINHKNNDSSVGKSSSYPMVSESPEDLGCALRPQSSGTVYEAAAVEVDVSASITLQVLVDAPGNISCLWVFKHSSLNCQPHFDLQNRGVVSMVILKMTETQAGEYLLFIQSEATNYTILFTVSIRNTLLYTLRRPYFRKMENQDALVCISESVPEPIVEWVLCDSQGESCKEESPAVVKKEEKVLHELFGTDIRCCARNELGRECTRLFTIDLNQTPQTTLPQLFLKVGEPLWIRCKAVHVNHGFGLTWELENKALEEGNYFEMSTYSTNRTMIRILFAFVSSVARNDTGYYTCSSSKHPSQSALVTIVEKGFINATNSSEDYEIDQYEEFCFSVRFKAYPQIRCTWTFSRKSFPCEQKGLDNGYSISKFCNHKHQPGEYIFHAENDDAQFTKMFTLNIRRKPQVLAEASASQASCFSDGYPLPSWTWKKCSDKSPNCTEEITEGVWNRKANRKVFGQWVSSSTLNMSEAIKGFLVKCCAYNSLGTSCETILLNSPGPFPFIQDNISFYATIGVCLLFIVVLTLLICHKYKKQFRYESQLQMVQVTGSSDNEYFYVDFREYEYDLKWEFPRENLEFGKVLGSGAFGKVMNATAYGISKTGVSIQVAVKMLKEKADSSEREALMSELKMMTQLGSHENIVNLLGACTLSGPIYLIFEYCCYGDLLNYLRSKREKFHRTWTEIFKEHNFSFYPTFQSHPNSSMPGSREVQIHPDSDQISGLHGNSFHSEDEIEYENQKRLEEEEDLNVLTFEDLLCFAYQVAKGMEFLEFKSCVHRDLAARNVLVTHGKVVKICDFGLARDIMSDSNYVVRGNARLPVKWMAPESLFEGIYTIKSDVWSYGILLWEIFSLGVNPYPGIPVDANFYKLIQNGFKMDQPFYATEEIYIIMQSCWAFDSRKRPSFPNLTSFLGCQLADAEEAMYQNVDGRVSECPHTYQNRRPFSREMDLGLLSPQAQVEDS

For human IgG4 isotype antibody, the EC50 (usually the concentration giving half of the maximal effect) in assay [1] stood at 14.5 nM; in assay [2] it was 326 nM; in [3], 16.7 nM; in assay [4], 25.9 nM; in assay [5] it was 368 nM; in [6], 13.6 nM. Moreover, in assay [7], the EC50 was determined as 13.7 nM.

Turning to “recombinant human FLT3-ligand (from UniProt P49771 27-185)”, in [8], the EC50 (nM), M1 IL-6 release assay worked out at 0.024 nM and the Emax (pg/ml), M1 IL-6 release assay stood at 392 pg/mL. For the same substance, the EC50 (nM), AML5 proliferation in assay [9] was determined as 0.039 nM.

Take “recombinant human FLT3-ligand human IgG1 fusion protein (Fc fusion)”: in assay [8], the EC50 (nM), M1 IL-6 release assay turned out to be 0.117 nM and the Emax (pg/ml), M1 IL-6 release assay came to 517 pg/mL.

As to human IgG1 isotype antibody, the EC50 in assay [1] was 5.25 nM; in assay [2], 32.1 nM; in assay [4], 4.46 nM; in assay [5] it was 38.8 nM; in [6] it was 4.44 nM.

Source of the values: patent US20220389394A1.
